Measured values: PMC2139755
Where “and” joins values, the source holds several entries; their conditions need not be identical. Equal entries are not always repeated. Where two headings read alike, the source gives them in different places.

Tests used:
Test in all cases: radioligand binding
[1] = target: receptor for IgE on rat basophilic leukemia cells (RBL-1 cells) (rat (endogenous in RBL-1)) (UniProt P12371)
[2] = target: receptor for IgE on rat basophilic leukemia cells (RBL-1 cells) (rat (endogenous in RBL-1)) (UniProt P12371); remark: listed apart in the source
[3] = target: receptor for IgE on rat basophilic leukemia cells (RBL-1 cells) (rat (endogenous in RBL-1)) (UniProt P12371); remark: listed apart in the source

Sequence of UniProt P12371 (P12371 24-245, chain 1 of 3): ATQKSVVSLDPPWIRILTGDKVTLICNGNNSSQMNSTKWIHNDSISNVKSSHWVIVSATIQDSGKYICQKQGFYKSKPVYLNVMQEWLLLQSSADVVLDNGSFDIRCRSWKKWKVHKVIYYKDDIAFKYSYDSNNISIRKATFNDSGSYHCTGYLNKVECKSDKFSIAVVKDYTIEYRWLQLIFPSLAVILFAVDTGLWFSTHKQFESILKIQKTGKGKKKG
Sequence of UniProt P12371 (P13386 whole entry, chain 2 of 3, further chain): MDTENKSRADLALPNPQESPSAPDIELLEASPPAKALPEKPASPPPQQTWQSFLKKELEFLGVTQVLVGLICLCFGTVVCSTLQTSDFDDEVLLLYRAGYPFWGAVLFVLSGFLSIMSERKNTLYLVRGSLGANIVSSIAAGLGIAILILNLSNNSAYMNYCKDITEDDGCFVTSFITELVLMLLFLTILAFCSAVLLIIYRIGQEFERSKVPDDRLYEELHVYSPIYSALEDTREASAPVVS
Sequence of UniProt P12371 (P20411 19-86, chain 3 of 3, further chain): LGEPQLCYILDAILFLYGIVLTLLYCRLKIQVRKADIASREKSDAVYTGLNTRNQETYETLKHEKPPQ

## [125I]IgE (IR 162), 125I-labeled rat IgE myeloma protein (antibody)
[1]
  Ka: 1.2e+10 M⁻¹
  koff: 4.7e-06 s⁻¹
  kon: 57000 M⁻¹ s⁻¹
[2]
  Ka: 1.2e+09 M⁻¹
  koff: 1.7e-05 s⁻¹
  kon: 21000 M⁻¹ s⁻¹
[3]
  Ka: > 6e+09 M⁻¹ and 6e+09 M⁻¹
  half-life of dissociation: 12 h
  koff: 1.6e-05 s⁻¹ and 1.4e-05 s⁻¹
  percent of the labeled protein bound (active fraction): 70 to 80%
  relative binding at 15 min (% of no additive), Ca++ 2 mM: 92%
  relative binding at 15 min (% of no additive), Ca++ 4 mM: 88%
  relative binding at 15 min (% of no additive), Ca++ 8 mM: 80%
  relative binding at 15 min (% of no additive), Ca++ and Mg++ 2, 2 mM: 86%
  relative binding at 15 min (% of no additive), EDTA 4 mM: 98%
  relative binding at 15 min (% of no additive), EDTA (4 mM) plus Ca++ 2 mM: 78%
  relative binding at 15 min (% of no additive), EDTA (4 mM) plus Ca++ 4 mM: 43%
  relative binding at 15 min (% of no additive), EDTA (4 mM) plus Mg++ 2 mM: 85%
  relative binding at 15 min (% of no additive), EDTA (4 mM) plus Mg++ 8 mM: 44%
  relative binding at 15 min (% of no additive), Mg++ 2 mM: 93%
  relative binding at 15 min (% of no additive), Mg++ 4 mM: 89%
  relative binding at 15 min (% of no additive), Mg++ 8 mM: 82%
  relative binding at 20 min (% of no additive), Al2(SO4)3 0.7 x 10^-7 M: 110%
  relative binding at 20 min (% of no additive), Al2(SO4)3 7.0 x 10^-7 M: 108%
  relative binding at 20 min (% of no additive), Al2(SO4)3 70 x 10^-7 M: 105%
  relative binding at 20 min (% of no additive), heparin 3.3 ug/ml: 101%
  relative binding at 20 min (% of no additive), heparin 10 ug/ml: 110%
  relative binding at 20 min (% of no additive), heparin 30 ug/ml: 102%
  relative binding at 20 min (% of no additive), human serum albumin 0.3 mg/ml: 93%
  relative binding at 20 min (% of no additive), phosphatidyl serine 12.5 ug/ml: 105%
  relative binding at 20 min (% of no additive), phosphatidyl serine 50 ug/ml: 116%
  relative binding at 20 min (% of no additive), phosphatidyl serine 200 ug/ml: 135%
  relative binding at 60 min (% of no additive), Al2(SO4)3 0.7 x 10^-7 M: 101%
  relative binding at 60 min (% of no additive), Al2(SO4)3 7.0 x 10^-7 M: 97%
  relative binding at 60 min (% of no additive), Al2(SO4)3 70 x 10^-7 M: 96%
  relative binding at 60 min (% of no additive), heparin 3.3 ug/ml: 99%
  relative binding at 60 min (% of no additive), heparin 10 ug/ml: 97%
  relative binding at 60 min (% of no additive), heparin 30 ug/ml: 101%
  relative binding at 60 min (% of no additive), human serum albumin 0.3 mg/ml: 99%
  relative binding at 60 min (% of no additive), phosphatidyl serine 12.5 ug/ml: 112%
  relative binding at 60 min (% of no additive), phosphatidyl serine 50 ug/ml: 114%
  relative binding at 60 min (% of no additive), phosphatidyl serine 200 ug/ml: 121%
  relative binding at 61 min (% of no additive), Ca++ 2 mM: 95%
  relative binding at 61 min (% of no additive), Ca++ 4 mM: 91%
  relative binding at 61 min (% of no additive), Ca++ 8 mM: 85%
  relative binding at 61 min (% of no additive), Ca++ and Mg++ 2, 2 mM: 70%
  relative binding at 61 min (% of no additive), EDTA 4 mM: 96%
  relative binding at 61 min (% of no additive), EDTA (4 mM) plus Ca++ 2 mM: 88%
  relative binding at 61 min (% of no additive), EDTA (4 mM) plus Ca++ 4 mM: 46%
  relative binding at 61 min (% of no additive), EDTA (4 mM) plus Mg++ 2 mM: 97%
  relative binding at 61 min (% of no additive), EDTA (4 mM) plus Mg++ 8 mM: 53%
  relative binding at 61 min (% of no additive), Mg++ 2 mM: 70%
  relative binding at 61 min (% of no additive), Mg++ 4 mM: 64%
  relative binding at 61 min (% of no additive), Mg++ 8 mM: 62%
